The source of these data is article PMC10786891, “Massively parallel profiling of RNA-targeting CRISPR-Cas13d”.

The chains are these.
T1: EsCas13d, nuclease-dead (Eubacterium siraeum, UniProt B0MS50, R295A;H300A;R849A;H854A)
T1 sequence: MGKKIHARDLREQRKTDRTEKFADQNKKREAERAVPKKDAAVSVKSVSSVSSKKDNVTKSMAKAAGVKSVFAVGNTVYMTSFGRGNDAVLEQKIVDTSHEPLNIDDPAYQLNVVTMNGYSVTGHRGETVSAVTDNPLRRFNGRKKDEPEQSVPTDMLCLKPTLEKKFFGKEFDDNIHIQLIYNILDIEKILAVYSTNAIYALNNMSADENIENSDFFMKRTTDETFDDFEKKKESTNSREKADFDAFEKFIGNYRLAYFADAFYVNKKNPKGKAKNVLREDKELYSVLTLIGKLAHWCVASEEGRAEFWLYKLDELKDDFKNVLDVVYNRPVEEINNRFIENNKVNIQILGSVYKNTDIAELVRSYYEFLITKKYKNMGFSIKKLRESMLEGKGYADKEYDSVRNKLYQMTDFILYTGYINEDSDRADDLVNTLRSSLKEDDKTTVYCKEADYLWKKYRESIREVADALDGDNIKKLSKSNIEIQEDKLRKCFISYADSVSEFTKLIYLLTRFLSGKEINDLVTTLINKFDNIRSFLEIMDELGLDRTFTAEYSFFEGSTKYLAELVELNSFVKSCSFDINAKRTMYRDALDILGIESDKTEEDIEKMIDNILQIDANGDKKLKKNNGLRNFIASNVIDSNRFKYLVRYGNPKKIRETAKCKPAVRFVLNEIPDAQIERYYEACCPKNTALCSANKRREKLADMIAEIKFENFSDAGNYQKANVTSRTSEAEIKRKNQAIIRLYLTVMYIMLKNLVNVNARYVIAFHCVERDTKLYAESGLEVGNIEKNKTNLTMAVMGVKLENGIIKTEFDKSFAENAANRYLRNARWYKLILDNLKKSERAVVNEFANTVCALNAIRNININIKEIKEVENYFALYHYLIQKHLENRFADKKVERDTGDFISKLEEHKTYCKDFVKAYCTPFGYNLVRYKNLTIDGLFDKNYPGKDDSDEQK

B1: target 1 insC 3' of 14,insC 3' of 9 (mixed)
RNA 1: CACCCGUGCAAAAAUGCAGGGGUCUAAAACUGAGCGGAUAACCUCUCUAUGG
RNA 2: GGGAAUGGAUCCACAUCUACGAAUUCGUACCAUAGAGACGGUUACUCCGCUCACCGAGAUCGGAAGAGCACACGU
B2: target 1 MT 5'PFS CUU 3'PFS UAG (mixed)
RNA 1: CACCCGUGCAAAAAUGCAGGGGUCUAAAACUGAGCGGAUAACCUCUCUAUGG
RNA 2: GGGAAUGGAUCCACAUCUACGAAUUCCUUCCAUAGAGAGGUUAUCCGCUCAUAGAGAUCGGAAGAGCACACGU
B3: target 1 MT 5'PFS GUG 3'PFS GAU (mixed)
RNA 1: CACCCGUGCAAAAAUGCAGGGGUCUAAAACUGAGCGGAUAACCUCUCUAUGG
RNA 2: GGGAAUGGAUCCACAUCUACGAAUUCGUGCCAUAGAGAGGUUAUCCGCUCAGAUAGAUCGGAAGAGCACACGU
B4: target 1 MT 5'PFS CGC 3'PFS UCG (mixed)
RNA 1: CACCCGUGCAAAAAUGCAGGGGUCUAAAACUGAGCGGAUAACCUCUCUAUGG
RNA 2: GGGAAUGGAUCCACAUCUACGAAUUCCGCCCAUAGAGAGGUUAUCCGCUCAUCGAGAUCGGAAGAGCACACGU
B5: target 1 MT 5'PFS UUG 3'PFS CGA (mixed)
RNA 1: CACCCGUGCAAAAAUGCAGGGGUCUAAAACUGAGCGGAUAACCUCUCUAUGG
RNA 2: GGGAAUGGAUCCACAUCUACGAAUUCUUGCCAUAGAGAGGUUAUCCGCUCACGAAGAUCGGAAGAGCACACGU
B6: target 1 MT 5'PFS AGA 3'PFS UAG (mixed)
RNA 1: CACCCGUGCAAAAAUGCAGGGGUCUAAAACUGAGCGGAUAACCUCUCUAUGG
RNA 2: GGGAAUGGAUCCACAUCUACGAAUUCAGACCAUAGAGAGGUUAUCCGCUCAUAGAGAUCGGAAGAGCACACGU
B7: target 1 MT 5'PFS UUG 3'PFS CGG (mixed)
RNA 1: CACCCGUGCAAAAAUGCAGGGGUCUAAAACUGAGCGGAUAACCUCUCUAUGG
RNA 2: GGGAAUGGAUCCACAUCUACGAAUUCUUGCCAUAGAGAGGUUAUCCGCUCACGGAGAUCGGAAGAGCACACGU
B8: target 1 G17C (mixed)
RNA 1: CACCCGUGCAAAAAUGCAGGGGUCUAAAACUGAGCGGAUAACCUCUCUAUGG
RNA 2: GGGAAUGGAUCCACAUCUACGAAUUCGUACCAUACAGAGGUUAUCCGCUCACCGAGAUCGGAAGAGCACACGU
B9: target 1 MT 5'PFS GGG 3'PFS GAG (mixed)
RNA 1: CACCCGUGCAAAAAUGCAGGGGUCUAAAACUGAGCGGAUAACCUCUCUAUGG
RNA 2: GGGAAUGGAUCCACAUCUACGAAUUCGGGCCAUAGAGAGGUUAUCCGCUCAGAGAGAUCGGAAGAGCACACGU
B10: target 1 MT 5'PFS CUU 3'PFS UAU (mixed)
RNA 1: CACCCGUGCAAAAAUGCAGGGGUCUAAAACUGAGCGGAUAACCUCUCUAUGG
RNA 2: GGGAAUGGAUCCACAUCUACGAAUUCCUUCCAUAGAGAGGUUAUCCGCUCAUAUAGAUCGGAAGAGCACACGU
B11: target 1 MT 5'PFS ACG 3'PFS UUA (mixed)
RNA 1: CACCCGUGCAAAAAUGCAGGGGUCUAAAACUGAGCGGAUAACCUCUCUAUGG
RNA 2: GGGAAUGGAUCCACAUCUACGAAUUCACGCCAUAGAGAGGUUAUCCGCUCAUUAAGAUCGGAAGAGCACACGU
B12: target 1 MT 5'PFS GUG 3'PFS GAC (mixed)
RNA 1: CACCCGUGCAAAAAUGCAGGGGUCUAAAACUGAGCGGAUAACCUCUCUAUGG
RNA 2: GGGAAUGGAUCCACAUCUACGAAUUCGUGCCAUAGAGAGGUUAUCCGCUCAGACAGAUCGGAAGAGCACACGU
B13: target 1 MT 5'PFS GGG 3'PFS UGC (mixed)
RNA 1: CACCCGUGCAAAAAUGCAGGGGUCUAAAACUGAGCGGAUAACCUCUCUAUGG
RNA 2: GGGAAUGGAUCCACAUCUACGAAUUCGGGCCAUAGAGAGGUUAUCCGCUCAUGCAGAUCGGAAGAGCACACGU
B14: target 1 MT 5'PFS CUG 3'PFS CUA (mixed)
RNA 1: CACCCGUGCAAAAAUGCAGGGGUCUAAAACUGAGCGGAUAACCUCUCUAUGG
RNA 2: GGGAAUGGAUCCACAUCUACGAAUUCCUGCCAUAGAGAGGUUAUCCGCUCACUAAGAUCGGAAGAGCACACGU
B15: target 1 MT 5'PFS AGA 3'PFS UAA (mixed)
RNA 1: CACCCGUGCAAAAAUGCAGGGGUCUAAAACUGAGCGGAUAACCUCUCUAUGG
RNA 2: GGGAAUGGAUCCACAUCUACGAAUUCAGACCAUAGAGAGGUUAUCCGCUCAUAAAGAUCGGAAGAGCACACGU
B16: target 1 MT 5'PFS GUG 3'PFS GAA (mixed)
RNA 1: CACCCGUGCAAAAAUGCAGGGGUCUAAAACUGAGCGGAUAACCUCUCUAUGG
RNA 2: GGGAAUGGAUCCACAUCUACGAAUUCGUGCCAUAGAGAGGUUAUCCGCUCAGAAAGAUCGGAAGAGCACACGU
B17: target 1 insC 3' of 9,insA 3' of 5 (mixed)
RNA 1: CACCCGUGCAAAAAUGCAGGGGUCUAAAACUGAGCGGAUAACCUCUCUAUGG
RNA 2: GGGAAUGGAUCCACAUCUACGAAUUCGUACCAUAGAGAGGUUACUCCGACUCACCGAGAUCGGAAGAGCACACGU
B18: target 1 MT 5'PFS CUG 3'PFS CUC (mixed)
RNA 1: CACCCGUGCAAAAAUGCAGGGGUCUAAAACUGAGCGGAUAACCUCUCUAUGG
RNA 2: GGGAAUGGAUCCACAUCUACGAAUUCCUGCCAUAGAGAGGUUAUCCGCUCACUCAGAUCGGAAGAGCACACGU
B19: target 1 MT 5'PFS GGG 3'PFS UGA (mixed)
RNA 1: CACCCGUGCAAAAAUGCAGGGGUCUAAAACUGAGCGGAUAACCUCUCUAUGG
RNA 2: GGGAAUGGAUCCACAUCUACGAAUUCGGGCCAUAGAGAGGUUAUCCGCUCAUGAAGAUCGGAAGAGCACACGU
B20: target 1 MT 5'PFS UAC 3'PFS UCC (mixed)
RNA 1: CACCCGUGCAAAAAUGCAGGGGUCUAAAACUGAGCGGAUAACCUCUCUAUGG
RNA 2: GGGAAUGGAUCCACAUCUACGAAUUCUACCCAUAGAGAGGUUAUCCGCUCAUCCAGAUCGGAAGAGCACACGU
B21: target 1 MT 5'PFS AGA 3'PFS UAC (mixed)
RNA 1: CACCCGUGCAAAAAUGCAGGGGUCUAAAACUGAGCGGAUAACCUCUCUAUGG
RNA 2: GGGAAUGGAUCCACAUCUACGAAUUCAGACCAUAGAGAGGUUAUCCGCUCAUACAGAUCGGAAGAGCACACGU
B22: target 1 MT 5'PFS UGG 3'PFS CAU (mixed)
RNA 1: CACCCGUGCAAAAAUGCAGGGGUCUAAAACUGAGCGGAUAACCUCUCUAUGG
RNA 2: GGGAAUGGAUCCACAUCUACGAAUUCUGGCCAUAGAGAGGUUAUCCGCUCACAUAGAUCGGAAGAGCACACGU
B23: target 1 MT 5'PFS CUU 3'PFS UAA (mixed)
RNA 1: CACCCGUGCAAAAAUGCAGGGGUCUAAAACUGAGCGGAUAACCUCUCUAUGG
RNA 2: GGGAAUGGAUCCACAUCUACGAAUUCCUUCCAUAGAGAGGUUAUCCGCUCAUAAAGAUCGGAAGAGCACACGU
B24: target 1 MT 5'PFS GUG 3'PFS GAG (mixed)
RNA 1: CACCCGUGCAAAAAUGCAGGGGUCUAAAACUGAGCGGAUAACCUCUCUAUGG
RNA 2: GGGAAUGGAUCCACAUCUACGAAUUCGUGCCAUAGAGAGGUUAUCCGCUCAGAGAGAUCGGAAGAGCACACGU
B25: target 1 G5U,A14G (mixed)
RNA 1: CACCCGUGCAAAAAUGCAGGGGUCUAAAACUGAGCGGAUAACCUCUCUAUGG
RNA 2: GGGAAUGGAUCCACAUCUACGAAUUCGUACCAUAGAGGGGUUAUCCUCUCACCGAGAUCGGAAGAGCACACGU
B26: target 1 MT 5'PFS UAC 3'PFS UCG (mixed)
RNA 1: CACCCGUGCAAAAAUGCAGGGGUCUAAAACUGAGCGGAUAACCUCUCUAUGG
RNA 2: GGGAAUGGAUCCACAUCUACGAAUUCUACCCAUAGAGAGGUUAUCCGCUCAUCGAGAUCGGAAGAGCACACGU
B27: target 1 MT 5'PFS UCG 3'PFS UGC (mixed)
RNA 1: CACCCGUGCAAAAAUGCAGGGGUCUAAAACUGAGCGGAUAACCUCUCUAUGG
RNA 2: GGGAAUGGAUCCACAUCUACGAAUUCUCGCCAUAGAGAGGUUAUCCGCUCAUGCAGAUCGGAAGAGCACACGU

Usually Kd stands for the concentration at which binding is half-saturated. A lower Kd goes with higher affinity.

The data set concerns the target T1, EsCas13d, nuclease-dead. The experiment in a line: crRNA (strand 1, pre-loaded); Mg2+; 40 mM Tris-HCl pH 7.5, 150 mM NaCl, 6 mM MgCl2, 1 mM DTT, 0.1% Tween-20, 0.2 mg/ml BSA; 25 C; 10 min per concentration, then washed. The note with it: tags: His6-TwinStrep-SUMO cleaved; N-terminal SNAP kept (SNAP-Surface 488); label: 3' end held by stalled T7 RNA polymerase.
B1 showed a Kd of 42 ± 11 nM.
Then B2, with approximately 90 nM.
In turn, B3 showed a Kd of 15.4 ± 1.95 nM.
Then B4, with approximately 76 nM; and B5, with 47.5 ± 23.5 nM; and B6, with 35.5 ± 14 nM.
B7 yielded a Kd of approximately 97 nM.
B8 registered a Kd of 40 ± 8 nM.
For B9 the value was 20.5 ± 5.5 nM; for B10, 56 ± 24 nM.
For B11 the value was 6.9 ± 1.3 nM; for B12, 17.2 ± 2.9 nM; for B13, 12.8 ± 1.3 nM.
Then B14, with 5.8 ± 1.9 nM.
B15 showed a Kd of 45 ± 20 nM.
With B16, the Kd was determined as 12.9 ± 1.4 nM. This Kd is about 3.5-fold lower than that of the molecule before.
Molecule B17 registered a Kd of 5.89 ± 0.35 nM. This Kd is about 2.2-fold lower than that of the molecule before.
Molecule B18 yielded a Kd of 4.15 ± 1.5 nM.
Then B19, with 24.5 ± 4 nM; and B20, with 12.5 ± 5 nM; and B21, with 40 ± 17 nM.
Then B22, with 80 ± 32 nM; and B23, with 35 ± 11.5 nM; and B24, with 18.8 ± 2.25 nM.
Then B25, with 68 ± 7 nM; and B26, with 21.3 ± 8.05 nM; and B27, with approximately 50 nM.
